Source: patent publication US20110129816A1 (NATIONAL UNIVERSITY CORPORATION UNIVERSITY OF TOYAMA, published 2011)
Read-outs that look alike come from different tables or passages of the source.

T1: nucleoprotein of influenza virus B/Ann Arbor/1/86 (viral strain) (influenza B virus B/Ann Arbor/1/86, UniProt P11102 1-560)
T1 sequence: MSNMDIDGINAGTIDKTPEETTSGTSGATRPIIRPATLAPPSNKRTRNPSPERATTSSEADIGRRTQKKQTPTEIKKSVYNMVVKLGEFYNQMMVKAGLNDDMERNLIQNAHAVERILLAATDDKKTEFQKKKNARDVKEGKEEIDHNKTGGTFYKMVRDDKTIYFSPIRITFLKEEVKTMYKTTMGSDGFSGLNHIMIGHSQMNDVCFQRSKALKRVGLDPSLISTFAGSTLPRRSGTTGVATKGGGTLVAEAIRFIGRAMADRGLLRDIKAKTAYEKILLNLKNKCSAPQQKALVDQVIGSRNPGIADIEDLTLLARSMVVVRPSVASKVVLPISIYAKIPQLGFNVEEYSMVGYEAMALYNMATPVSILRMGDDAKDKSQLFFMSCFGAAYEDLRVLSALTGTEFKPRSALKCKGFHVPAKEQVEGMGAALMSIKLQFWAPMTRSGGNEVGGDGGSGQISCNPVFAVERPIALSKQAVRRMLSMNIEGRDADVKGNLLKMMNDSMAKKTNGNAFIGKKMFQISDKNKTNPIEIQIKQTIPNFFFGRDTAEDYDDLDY

T2: nucleoprotein of influenza virus B/Singapore/222/79 (influenza B virus B/Singapore/222/79, UniProt P04666 1-560)
T2 sequence: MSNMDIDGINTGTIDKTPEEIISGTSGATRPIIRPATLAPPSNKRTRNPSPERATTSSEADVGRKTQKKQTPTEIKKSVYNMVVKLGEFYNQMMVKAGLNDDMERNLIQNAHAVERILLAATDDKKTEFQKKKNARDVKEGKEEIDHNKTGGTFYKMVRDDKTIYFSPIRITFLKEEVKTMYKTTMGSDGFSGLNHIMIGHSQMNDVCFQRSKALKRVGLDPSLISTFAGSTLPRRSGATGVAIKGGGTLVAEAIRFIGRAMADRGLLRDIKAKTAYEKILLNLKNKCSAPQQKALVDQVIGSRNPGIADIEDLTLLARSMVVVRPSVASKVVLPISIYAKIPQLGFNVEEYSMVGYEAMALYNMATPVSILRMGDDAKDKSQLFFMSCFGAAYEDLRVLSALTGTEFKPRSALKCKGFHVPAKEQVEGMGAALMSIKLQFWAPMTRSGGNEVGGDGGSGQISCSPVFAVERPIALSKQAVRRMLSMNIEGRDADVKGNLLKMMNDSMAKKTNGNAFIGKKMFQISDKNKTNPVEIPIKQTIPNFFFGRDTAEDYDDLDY

T3: nucleoprotein of influenza virus B/Panama/45/90 (influenza B virus B/Panama/45/90, UniProt O36433 1-560)
T3 sequence: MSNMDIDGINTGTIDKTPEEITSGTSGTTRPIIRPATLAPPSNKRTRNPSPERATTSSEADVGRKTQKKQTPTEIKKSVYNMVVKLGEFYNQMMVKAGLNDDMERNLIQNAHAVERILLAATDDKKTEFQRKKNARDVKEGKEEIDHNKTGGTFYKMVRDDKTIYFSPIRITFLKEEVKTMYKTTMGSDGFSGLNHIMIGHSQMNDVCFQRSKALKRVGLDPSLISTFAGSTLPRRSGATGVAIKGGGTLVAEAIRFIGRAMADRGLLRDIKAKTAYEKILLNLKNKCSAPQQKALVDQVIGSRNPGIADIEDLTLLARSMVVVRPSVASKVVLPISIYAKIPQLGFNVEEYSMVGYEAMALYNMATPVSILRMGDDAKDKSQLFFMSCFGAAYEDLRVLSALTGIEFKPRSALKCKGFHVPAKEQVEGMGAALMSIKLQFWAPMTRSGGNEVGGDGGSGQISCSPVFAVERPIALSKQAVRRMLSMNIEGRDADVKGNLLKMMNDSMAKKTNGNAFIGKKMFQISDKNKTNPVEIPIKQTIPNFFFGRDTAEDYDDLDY


What was measured:
[1] = biological target: nucleoprotein of influenza virus A/Panama/2007/99 (H3N2) (influenza A virus A/Panama/2007/99 (H3N2)); experiment: sandwich CLIA, acridinium label M322211, S/N>=2.1
[2] = biological target: nucleoprotein of influenza virus A/Beijing/262/95 (H1N1) (influenza A virus A/Beijing/262/95 (H1N1)); experiment: sandwich CLIA, acridinium label M322211, S/N>=2.1
[3] = biological target: T1, nucleoprotein of influenza virus B/Ann …; experiment: same-clone sandwich CLIA
[4] = biological target: T2, nucleoprotein of influenza virus …; experiment: same-clone sandwich CLIA
[5] = biological target: T3, nucleoprotein of influenza virus …; experiment: same-clone sandwich CLIA
[6] = biological target: nucleoprotein of influenza virus A/Beijing/262/95 (H1N1) (influenza A virus A/Beijing/262/95 (H1N1)); experiment: SPR (Biacore 2000), antibody fixed directly on CM5, virus 10 µg/mL
[7] = biological target: recombinant influenza A virus nucleoprotein (influenza A virus A/Puerto Rico/8/34, UniProt P03466 1-498); experiment: ELISA on coated recombinant nucleoprotein, culture supernatant
[8] = biological target: T1, nucleoprotein of influenza virus B/Ann …; experiment: same-clone sandwich CLIA; remark: listed apart in the source
[9] = biological target: T2, nucleoprotein of influenza virus …; experiment: same-clone sandwich CLIA; remark: listed apart in the source
[10] = biological target: T3, nucleoprotein of influenza virus …; experiment: same-clone sandwich CLIA; remark: listed apart in the source
[11] = biological target: nucleoprotein of influenza virus B/Victoria/504/00 (influenza B virus B/Victoria/504/00); experiment: SPR (Biacore 2000), antibody captured by anti-IgG
[12] = biological target: nucleoprotein of influenza virus B/Victoria/504/00 (influenza B virus B/Victoria/504/00); experiment: sandwich CLIA, acridinium label M2110171, S/N>=2.1
[13] = biological target: nucleoprotein of influenza virus B/Victoria/504/00 (influenza B virus B/Victoria/504/00); experiment: sandwich CLIA, acridinium label 23G327, S/N>=2.1
[14] = biological target: nucleoprotein of influenza virus A/Panama/2007/99 (H3N2) (influenza A virus A/Panama/2007/99 (H3N2)); experiment: sandwich CLIA, acridinium label 23G285, S/N>=2.1
[15] = biological target: nucleoprotein of influenza virus A/Beijing/262/95 (H1N1) (influenza A virus A/Beijing/262/95 (H1N1)); experiment: sandwich CLIA, acridinium label 23G285, S/N>=2.1

Row | Molecule | binding result [3] | binding result [4] | binding result [5] | further results
1 | mouse anti-influenza A virus nucleoprotein monoclonal antibody ATCC HB-65 | – | – | – | detection sensitivity [1]: 50 ng/mL; detection sensitivity [2]: 50 ng/mL
2 | human anti-influenza A virus nucleoprotein monoclonal antibody 23G494 (antibody, V domains shown, also called 23G494 antibody) VH: QVQLVQSGGGLVKPGGSLRLSCAGSGFSFSDYYMTWIRQAPGKGLEWVSSINSGSTVTNYADSVQGRFTISRDKNSVYLQMNSLRTEDTAVYYCARDFGIKAGTSDYWGQGTLVTVSS VL: DIQMTQSPSSLSASVGDRVTITCRASQTISNFLNWYQQKPGKAPKLLIYAASRLQSWVPSRFTGSGSGTDFALTISSLQPEDFATYYCQQTFSPRITFGPGTKVEMKR | no binding (tested: S/N<2.1) | no binding (tested: S/N<2.1) | no binding (tested: S/N<2.1) | –
3 | human anti-influenza A virus nucleoprotein monoclonal antibody 23G285 (antibody, V domains shown, also called 23G285 antibody) VH: QVQLVQSGGGVVQPGRSLRLSCAASGFTFSRYGMHWVRQAPGKGLEWVAVILYEGINKDYADSVKGRFTISRDNSKNTLYLQMNSLRAEDTAVYYCARDRELRLDYWGQGTLVTVSS VL: QSVLTQPPSVSGAPGQRVTFSCTGSSSNIGAGYDVNWYQQLPGTAPKVLIYGNTNRPSGVPDRFSASKSGTSASLAITGLQAEDEADYYCQSYDSSLRGYVFGTGTKVSVL | no binding (tested: S/N<2.1) | no binding (tested: S/N<2.1) | no binding (tested: S/N<2.1) | –
4 | human anti-influenza A virus nucleoprotein monoclonal antibody 23G272 (antibody, V domains shown, also called 23G272 antibody) VH: QVQLVQSGAEVKKPGSSVKVSCKATGDTFSSYSISWVRQAPGQGLEWMGRVTPSFGISLYAQKFQGRVTITADRSSSTAYMELNNLTSDDTAVYYCAAGGLVVVVANHWGQGTLVTVSS VL: EIVLTQSPATLSASVGDRVTITCRASQDITSSLGWYQQRAGEAPKLLLFAASRLESGVPSRFSGSGSGTEYTLTISNLQPEDFATYYCLHYFGSRPWTFGQGTKVEIKR | no binding (tested: S/N<2.1) | no binding (tested: S/N<2.1) | no binding (tested: S/N<2.1) | amount of bound antigens relative to HB-65 [6]: 10 fold
5 | human anti-influenza A virus nucleoprotein monoclonal antibody 23G312 (antibody, V domains shown, also called 23G312 antibody) VH: QVQLVQSGGGLVQPGRSLRLSCIASGFSFDDYAMHWVRQIPGKGLEWVSGISWNSGARGYADSVKGRFTISRDNAKNSLYLQMNSLRVGDTAFYYCARDMGAGPNDYDTSGNYPLHLYGMDVWGHGTTVTVSS VL: EIVLTQSPATLSVSPGDRATLSCRASQSVSDKLAWYQQKPGQAPRLLIYGAYTRATGTPARFSGSGSGTEFTLSITGLQAEDFAIYYCHQYNNWPLTFGGGTKVDIK | no binding (tested: S/N<2.1) | no binding (tested: S/N<2.1) | no binding (tested: S/N<2.1) | –
6 | human anti-influenza B virus nucleoprotein monoclonal antibody 23G327 (antibody, V domains shown, also called 23G327 antibody) VH: QVQLVQSGAEVKRPGASVKVSCKASGYNLIDFYVNWVRQVPGQGLEWMGYINPDSGGAHYEGKFQGRVIMTRDTSINTAYMELPSLTSDDTAVYFCARGASSGLLTYYYGLDVWGEGTTVIVSS VL: DIQMTQSPSSLSASIGDRVTITCRASPGINSYLAWYQHKPGKAPKLLIYAASTLQSGVPSRFSGSGSGTDFTLTISSLQPEDVATYYCQKYNSAPWTFGPGTKVEIK | – | – | – | binding result [7]: no binding; binding result [8]: binds; binding result [9]: binds; binding result [10]: binds; reactivity (bound antigen per bound antibody) relative to 41027 [11]: 2 fold; reactivity (bound antigen per bound antibody) relative to M2110171 [11]: 1.2 fold; reactivity (bound antigen per bound antibody) relative to antibody 2/3 [11]: 0.8 fold; detection sensitivity [12]: 31.3 ng/mL; detection sensitivity [13]: 125 ng/mL
7 | human anti-influenza A virus nucleoprotein monoclonal antibody 23G447 (antibody, V domains shown, also called 23G447 antibody) VH: QVQLQESGPGLVKPSQTLSLTCSVSGGSISNPDHYWNWIRQPPGKGLEWIGYIYYTGRTWYSPSLKSRVSLSVDTSKSQFSLNVDSVIAADTAVYYCARSHVWFGELYWGQGALVTVSS VL: QSVLTQPPSVSAAPGQKVTISCSGRSSNVGDNYVSWYQQFPGTAPKLLIYDNTKRPSGIPDRFSGSKSGTSATLGITGLQTGDEAAYYCATWDSVLSAGVFGGGTKLTVL | no binding (tested: S/N<2.1) | no binding (tested: S/N<2.1) | no binding (tested: S/N<2.1) | –
8 | human anti-influenza A virus nucleoprotein monoclonal antibody 23G268 (antibody, V domains shown, also called 23G268 antibody) VH: QVQLVQSGAVVKKPGDSVKVSCKASGYTFTTYWMHWVRQAPGQGPEWMGIVNPTGGTVMYAKKFQGRVIMTRDTSTTTVFLQLNGLESEDTAIYYCARDLGPARVDFDWLSTFVSWGQGTLVTVSS VL: DIQMTQSPSSLSASVGDRVIITCRASQGITRHLNWYQQKSGKAPKLLIYDASSLQSGVPSRFSGSGSGADFTLTISSVQPEDFATYYCQQSYSNPPTFGPGTKVDIKR | no binding (tested: S/N<2.1) | no binding (tested: S/N<2.1) | no binding (tested: S/N<2.1) | detection sensitivity [14]: 6.25 ng/mL; detection sensitivity [15]: 6.25 ng/mL
